Among the data in the Human Domainome abundance scans (Beltran et al. 2025) are abundance fitness values, retold here.

± gives the uncertainty stated by the source.

Sequences and labels used below:
B1: Spectrin alpha chain, erythrocytic 1, residues 979 to 1036; numbered along this chain, P02549 (parent)
chain: EQRVMALYDFQARSPREVTMKKGDVLTLLSSINKDWWKVEAADHQGIVPAVYVRRLAH

The data set covers variants of B1. Put plainly: abundance fitness (aPCA) (normalised: wild type 0, dead -1); higher = more abundant; growth selection in yeast, the domain comes from the species named. The conditions noted are these: Homo sapiens.
On to EQRVMALYDFQARSPREVTMKKGDVLTLLSSINKDWWKVEAADHQGIVPAVYWRRLAH [V53W], for which the abundance fitness was -0.634 ± 0.43.

With EQRVMALYDFQARSPREVTMKKGDVLTLLSSINKDWWKVEAADHQGIVPAVYSRRLAH [V53S], the abundance fitness is -0.819 ± 0.26.

Consider EQRVMALYDFQARSPREVTMKKGDVLTLLSSINKDWWKVEAADHQGIVPAVYARRLAH [V53A], for which the abundance fitness is -0.766 ± 0.25.

EQRVMALYDFQARSPREVTMKKGDVLTLLSSINKDWWKVEAADHQGIVPAVYCRRLAH [V53C]: the abundance fitness turned out to be 0.039 ± 0.11.

As for EQRVMALYDFQARSPREVTMKKGDVLTLLSSINKDWWKVEAADHQGIVPAVYLRRLAH [V53L], the abundance fitness is 0.13 ± 0.1.

Turning to EQRVMALYDFQARSPREVTMKKGDVLTLLSSINKDWWKVEAADHQGIVPAVYTRRLAH [V53T], the abundance fitness is -0.872 ± 0.33.

As to EQRVMALYDFQARSPREVTMKKGDVLTLLSSINKDWWKVEAADHQGIVPAVYPRRLAH [V53P], the abundance fitness is -0.579 ± 0.42.

Take EQRVMALYDFQARSPREVTMKKGDVLTLLSSINKDWWKVEAADHQGIVPAVYVRRLAS [H58S]: the abundance fitness is 0.088 ± 0.31.

For the variant EQRVMALYDFQARSPREVTMKKGDVLTLLSSINKDWWKVEAADHQGIVPAVYVRRLAR [H58R], the abundance fitness was -0.078 ± 0.39.

Regarding EQRVMALYDFQARSPREVTMKKGDVLTLLSSINKDWWKVEAADHQGIVPAVYVRRLAY [H58Y], the abundance fitness is 0.141 ± 0.27.

As to EQRVMALYDFQARSPREVTMKKGDVLTLLSSINKDWWKVEAADHQGIVPAVYVRRLAP [H58P], the abundance fitness stood at 0.358 ± 0.2.

As to EQRVMALYDFQARSPREVTMKKGDVLTLLSSINKDWWKVEAADHQGIVPAVYVARLAH [R54A], the abundance fitness is -0.351 ± 0.17.

Consider EQRVMALYDFQARSPREVTMKKGDVLTLLSSINKDWWKVEAADHQGIVPAVYVLRLAH [R54L], for which the abundance fitness was -0.963 ± 0.19.

Regarding EQRVMALYDFQARSPREVTMKKGDVLTLLSSINKDWWKVEAADHQGIVPAVYVQRLAH [R54Q], the abundance fitness was found to be 0.052 ± 0.26.

Take EQRVMALYDFQARSPREVTMKKGDVLTLLSSINKDWWKVEAADHQGIVPAVYVHRLAH [R54H]: the abundance fitness came out at 0.83 ± 0.17.

In the case of EQRVMALYDFQARSPREVTMKKGDVLTLLSSINKDWWKVEAADHQGIVPAVYVWRLAH [R54W], the abundance fitness is -0.668 ± 0.34.

For the variant EQRVMALYDFQARSPREVTMKKGDVLTLLSSINKDWWKVEAADHQGIVPAVYVVRLAH [R54V], the abundance fitness was -0.53 ± 0.12.

EQRVMALYDFQARSPREVTMKKGDVLTLLSSINKDWWKVEAADHQGIVPAVYVKRLAH [R54K]: the abundance fitness was determined as 0.257 ± 0.17.

EQRVMALYDFQARSPREVTMKKGDVLTLLSSINKDWWKVEAADHQGIVPAVYVGRLAH [R54G]: the abundance fitness was -0.491 ± 0.16.

Consider EQRVMALYDFQARSPREVTMKKGDVLTLLSSINKDWWKVEAADHQGIVPAVYVPRLAH [R54P], for which the abundance fitness is -0.292 ± 0.49.

Turning to EQRVMALYDFQARSPREVTMKKGDVLTLLSSINKDWWKVEAADHQGIVPAVYVNRLAH [R54N], the abundance fitness was -0.668 ± 0.13.

EQRVMALYDFQARSPREVTMKKGDVLTLLSSINKDWWKVEAADHQGIVPAVYVDRLAH [R54D]: the abundance fitness was 0.095 ± 0.32.

As for EQRVMALYDFQARSPREVTMKKGDVLTLLSSINKDWWKVEAADHQGIVPAVYVERLAH [R54E], the abundance fitness is -0.254 ± 0.33.

Consider EQRVMALYDFQARSPREVTMKKGDVLTLLSSINKDWWKVEAADHQGIVPAVYVMRLAH [R54M], for which the abundance fitness was -0.518 ± 0.26.

Regarding EQRVMALYDFQARSPREVTMKKGDVLTLLSSINKDWWKVEAADHQGIVPAVYVSRLAH [R54S], the abundance fitness is -0.588 ± 0.29.

Regarding EQRVMALYDFQARSPREVTMKKGDVLTLLSSINKDWWKVEAADHQGIVVAVYVRRLAH [P49V], the abundance fitness is -0.797 ± 0.36.

As for EQRVMALYDFQARSPREVTMKKGDVLTLLSSINKDWWKVEAADHQGIVYAVYVRRLAH [P49Y], the abundance fitness was -0.72 ± 0.36.

For EQRVMALYDFQARSPREVTMKKGDVLTLLSSINKDWWKVEAADHQGIVWAVYVRRLAH [P49W], the abundance fitness was -0.792 ± 0.41.

Regarding EQRVMALYDFQARSPREVTMKKGDVLTLLSSINKDWWKVEAADHQGIVPAKYVRRLAH [V51K], the abundance fitness amounted to 0.525 ± 0.14.

For the variant EQRVMALYDFQARSPREVTMKKGDVLTLLSSINKDWWKVEAADHQGIVPAFYVRRLAH [V51F], the abundance fitness is 0.246 ± 0.26.

On to EQRVMALYDFQARSPREVTMKKGDVLTLLSSINKDWWKVEAADHQGIVPAPYVRRLAH [V51P], for which the abundance fitness worked out at 0.173 ± 0.17.

Consider EQRVMALYDFQARSPREVTMKKGDVLTLLSSINKDWWKVEAADHQGIVPASYVRRLAH [V51S], for which the abundance fitness turned out to be 0.579 ± 0.08.

For EQRVMALYDFQARSPREVTMKKGDVLTLLSSINKDWWKVEAADHQGIVPAQYVRRLAH [V51Q], the abundance fitness is 0.126 ± 0.19.

Regarding EQRVMALYDFQARSPREVTMKKGDVLTLLSSINKDWWKVEAADHQGIVPAYYVRRLAH [V51Y], the abundance fitness is -0.242 ± 0.1.

For EQRVMALYDFQARSPREVTMKKGDVLTLLSSINKDWWKVEAADHQGIVPADYVRRLAH [V51D], the abundance fitness was found to be 0.148 ± 0.26.

With EQRVMALYDFQARSPREVTMKKGDVLTLLSSINKDWWKVEAADHQGIVPAHYVRRLAH [V51H], the abundance fitness amounted to 0.216 ± 0.26.

With EQRVMALYDFQARSPREVTMKKGDVLTLLSSINKDWWKVEAADHQGIVPAIYVRRLAH [V51I], the abundance fitness stood at 0.201 ± 0.17.

As for EQRVMALYDFQARSPREVTMKKGDVLTLLSSINKDWWKVEAADHQGIVPAGYVRRLAH [V51G], the abundance fitness was 0.146 ± 0.099.

In the case of EQRVMALYDFQARSPREVTMKKGDVLTLLSSINKDWWKVEAADHQGIVPALYVRRLAH [V51L], the abundance fitness was -0.083 ± 0.12.

In the case of EQRVMALYDFQARSPREVTMKKGDVLTLLSSINKDWWKVEAADHQGIVPARYVRRLAH [V51R], the abundance fitness amounted to 0.643 ± 0.079.

Turning to EQRVMALYDFQARSPREVTMKKGDVLTLLSSINKDWWKVEAADHQGIVPAEYVRRLAH [V51E], the abundance fitness was -0.31 ± 0.24.

On to EQRVMALYDFQARSPREVTMKKGDVLTLLSSINKDWWKVEAADHQGIVPAMYVRRLAH [V51M], for which the abundance fitness stood at 0.149 ± 0.12.

Consider EQRVMALYDFQARSPREVTMKKGDVLTLLSSINKDWWKVEAADHQGIVPAAYVRRLAH [V51A], for which the abundance fitness stood at 0.616 ± 0.075.

EQRVMALYDFQARSPREVTMKKGDVLTLLSSINKDWWKVEAADHQGIVPAWYVRRLAH [V51W]: the abundance fitness was -0.18 ± 0.15.

Turning to EQRVMALYDFQARSPREVTMKKGDVLTLLSSINKDWWKVEAADHQGIVPAVYVRRLQH [A57Q], the abundance fitness was determined as 0.18 ± 0.36.

On to EQRVMALYDFQARSPREVTMKKGDVLTLLSSINKDWWKVEAADHQGIVPAVYVRRLCH [A57C], for which the abundance fitness was -0.092 ± 0.15.
